58 molecules from patent US20120253008A1 (Ablynx, published 2012) can be followed below.

The first assay addresses T1, human serum albumin (human, UniProt P02768 25-609).
T1 construct: also called HSA
Description: phage ELISA, phage titration on coated HSA, near-infrared fluorescence. The procedure:
5-fold serial dilutions of phage clones (starting from ˜5×10¹¹ phage) were added to 96-well Nunc Maxisorp plates coated with human serum albumin (2 μg/ml in PBS, overnight at 4° C.; plates were blocked with Superblock T20 (Pierce) for 1 h at room temperature). […] The amount of IRDye bound was measured on Odyssey (LI-COR Biosciences). The dilution of phage was plotted against measured near-infrared fluorescence intensity (FIG. 2).
After respectively three and four selection rounds, monoclonal phage were screened for binding on HSA, in the manner described in Example 2. Clones that bind to HSA (FIGS. 7A to 7C and Table V) were screened in phage competition ELISA, in the manner described in Example 5. The ratio of phage binding was calculated by the following equation: fluorescence signal of well with 2 μM competitor/fluorescence signal of well with no competitor (Table VI).
For AARWWDYDVFGGGTPVGG [59A5], the binding result is on record as “binds”.
AARYWDYDVFGGGTPVDG [60E6]: the binding result is recorded as “binds”.
The same measure, in the same setting: for AARYWDFDAFGGGTPVGG [59B3] the value was “binds”; for AARYWDWDVFGGGTPVGG [59C8], “binds”; for AARYWDFDVFGGGSPVGG [59H10], “binds”.
Take AARFWDYDVFGGGTPVGG [59B2]: the binding result is reported as “binds”.

The next assay deals with T1, human serum albumin. Put plainly: phage ELISA and/or solution binding competition ELISA on HSA. A general note: An ELISA detects its analyte on a solid surface through an enzyme-linked reagent.
As to AALYGDYDVFGGGTPLGE [PMP54F2], the binding result is recorded as “binds”.
With AARYYDYDVFGGGTPLGG [PMP56F5], the binding result is “binds”.
Regarding AALYRDYDVFAGGTPGGG [PMP54E2], the binding result was “binds”.
For AAIYRDYDVFGGGTPLGQ [PMP54G2], the binding result is recorded as “binds”.
With AAYYRDYDVFGGGTPVGE [PMP56A5], the binding result is “binds”.
AARYWDYDVFGGGTPQGE [PMP56C2]: the binding result is reported as “binds”.
In the case of AARYYDYDVFGGGTRSGE [PMP54C1], the binding result was “binds”.
AATYLDYDVFGGGTPDGR [PMP54E3]: the binding result is recorded as “binds”.
Regarding AAYYYDYDVFGGGTPGGE [PMP54G3 (SEQ ID NO: 44)], the binding result was “binds”.
On the same count and under the same terms, to AAWYRDYDVFGGGTPLGA [PMP56H1] belongs “binds”.
Regarding AAWYFDYDVFGGGTADGE [PMP56F3], the binding result is “binds”.
Consider AARYYDYDVFGGGTVVGE [PMP54B2], for which the binding result is listed as “binds”.
As to AAYYYDYDVFGGGTPGGE [PMP56E1], the binding result is listed as “binds”.
Take AARYYDYDVFGGGTPLGG [PMP56E6]: the binding result is given as “binds”.
On to AARYYDYDVFGGGTPLGA [PMP56E5], for which the binding result is on record as “binds”.
In the case of AARYYDYDVFGGGTPLGA [PMP56C3], the binding result is reported as “binds”.
Turning to AARYYDYDVFGGGTPLGA [PMP56E3], the binding result is reported as “binds”.
In the case of AAFYWDYDVFGGGTDPGA [PMP56G3], the binding result is on record as “binds”.
For AAWYFDYDVFGGGTADGE [PMP56H6], the binding result was “binds”.
Still for that read-out and setting: for AAPYHDYDVFGGGTPVGE [PMP56A2] the value was “binds”.
In the case of AASYLDYDVFGGGTPFGE [PMP54H1], the binding result is “binds”.
In the case of AAYYFDYDVFGGGTPEGT [PMP56C1], the binding result is listed as “binds”.
AAAYLDYDVFGGGTPVGG [PMP56G5]: the binding result is on record as “binds”.
For AAWYRDYDVFGGGTDEGS [PMP54B1], the binding result is listed as “binds”.
On to AARYWDYDVFGGGTPQGE [PMP56B1], for which the binding result was “binds”.
The same measure, in the same setting: to AARYWDYDVFGGGTDPGG [PMP56G2] belongs “binds”; to AAFYWDYDVFGGGTDPGA [PMP56H3], “binds”; to AAWYTDYDVFGGGTPQGG [PMP56F1], “binds”.
Regarding AAVYWDYDVFGGGTSLGD [PMP56B6], the binding result is “binds”.
AARYYDYDVFGGGTPLGG [PMP56G6]: the binding result is reported as “binds”.
For AAYYFDYDVFGGGTPEGT [PMP56G1], the binding result is “binds”.
Take AAFYRDYDVFGGGTGSGN [PMP54E1]: the binding result is listed as “binds”.
Same read-out and setting: for AALYRDYDVFGGGTQVGE [PMP54G3 (SEQ ID NO: 49)] the value was “binds”; for AADYYDYDVFGGGTSVGE [PMP56A1], “binds”; for AARYLDYDVFGGGTDVGS [PMP54F3], “binds”.
For AATYYDYDVFGGGTPLGQ [PMP56D5], the binding result is reported as “binds”.
As for AARYYDYDVFGGGTAGGQ [PMP56A6], the binding result was “binds”.
With AAFYMDYDVFGGGTPRGQ [PMP56A4], the binding result is on record as “binds”.
As for AARYPDYDVFGGGTPVGG [PMP54C2], the binding result is “binds”.
On the same count and under the same terms, for AARYPDYDVFGGGTPSGG [PMP56C6] the value was “binds”; for AATYFDYDVFGGGTAVGS [PMP54G1], “binds”.
Consider AASYRDYDVFGGGTPRGW [PMP54H3], for which the binding result is “binds”.
On to AALYKDYDVFGGGTPGGE [PMP56D4], for which the binding result was “binds”.
In the case of AARYFDYDVFGGGTPAGD [PMP56B2], the binding result is “binds”.
For AAAYWDYDVFGGGTSAGT [PMP54H2], the binding result is “binds”.
On the same count and under the same terms, to AAVYDDYDVFGGGTPVGG [PMP56B3] belongs “binds”; to AALYRDYDVFGGGTPVGG [PMP56F6], “binds”; to AALYRDYDVFGGGTPVGG [PMP56B5], “binds”.
On the same count and under the same terms, to AAMYYDYDVFGGGTPTGA [PMP56C5] belongs “binds”; to AARYLDYDVFGGGTQLGS [PMP54D3], “binds”; to AARYLDYDVFGGGTPIGE [PMP54C3], “binds”.
Regarding AARYFDYDVFGGGTDLGD [PMP54D2], the binding result is on record as “binds”.
